In the data set the target is T1, LldR (Escherichia coli K-12 W3110 type-A) (UniProt P0ACL7).
T1 sequence: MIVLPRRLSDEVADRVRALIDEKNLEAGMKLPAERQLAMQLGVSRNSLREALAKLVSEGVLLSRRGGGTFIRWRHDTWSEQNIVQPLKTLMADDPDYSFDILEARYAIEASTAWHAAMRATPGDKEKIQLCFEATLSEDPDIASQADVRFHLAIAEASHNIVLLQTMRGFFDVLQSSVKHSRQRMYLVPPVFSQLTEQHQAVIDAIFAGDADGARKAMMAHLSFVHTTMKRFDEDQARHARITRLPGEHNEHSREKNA
The data set is described as follows: EMSA. The conditions noted are these: EMSA: binding buffer (composition given for gSELEX: 10 mM Tris-HCl pH 7.8 at 4 °C, 3 mM Mg acetate, 150 mM NaCl, 1.25 mg/ml BSA), 37 °C 30 min, then effector …. Background: Mobility shift assays separate free from complexed probe on a gel.

Among the data in PMC10272880 are binding values, retold here.

In the case of “GATTTTCAACCAGATATGATCATGGTTACGCCATCTTATTGCCTTAACCTGATTGAAGAGCTGGAGCGGCAGTTGGGCGGTGATGCCAGCGGTTGCTCGCTGCGGGTTGGAGTATTTGGTGCTGAGCCGTGGACACAGGCCATGCGTAAAGAGATTGAGCGTCGCCTGGGGATCACCGCACTGGATATTTATGGCCTGTCAGAAGTGATGGGGCCGGGGGTGGCGATGGAGTGTCTGGAAACTACCGACGGCCCAACCATTTGGGAAGATCATTTCTATCCTGAAATTGTTA (double strand) [paaX promoter probe]”, the binding entry is given as “no binding”. In the case of “TCCCGGACCTCGTGCACAGGTAGGACCAATTTTTCTGTTCTTAACTCGCAAAACACGCACATCACGTAAGTGATTATGTTACATCAATTTAACATTGAGTTAACCAAGACAAGGTCACAGAGCTGGAAAAAAAATGGTCTGACCGGTAGCTAAAGAGATAGACGAAAACGAAAAGCCCGCTTAATAACTGTTCACAGAAGCAGCGCGCAAAAATCAGCTGCCACACAACACAACAAAGCGAAGCCTACTCATGAGCATCTTGTACGAAGAGCGTCTT (double strand) [glcD/glcC probe]”, the binding result is reported as “binds”.
